Common to all, as to assay: in vivo oligomerization (SDS-PAGE of cell lysates ± DTT, anti-FLAG Western blot)
In assay [1] the target is HapR, wild type, C-terminal FLAG-tagged (Vibrio cholerae).
Assay [2] deals with HapR-R37A, C-terminal FLAG-tagged (Vibrio cholerae).
The target of assay [3] is HapR-R37D, C-terminal FLAG-tagged (Vibrio cholerae).
For assay [4], the target named is HapR-R37E, C-terminal FLAG-tagged (Vibrio cholerae).
Assay [5] has as its target HapR-R37H, C-terminal FLAG-tagged (Vibrio cholerae).

For the substance “HapR, wild type, C-terminal FLAG-tagged (natural protein)”, in assay [1], the stoichiometry N (commonly the number of molecules, sites or subunits per partner or assembly) is 2.
In assay [2], “HapR-R37A, C-terminal FLAG-tagged (natural protein)” showed a stoichiometry N of 2.
Turning to “HapR-R37D, C-terminal FLAG-tagged (natural protein)”, in assay [3], the stoichiometry N was determined as 2.
For “HapR-R37E, C-terminal FLAG-tagged (natural protein)”, the stoichiometry N in assay [4] was 2.
“HapR-R37H, C-terminal FLAG-tagged (natural protein)” came in with a stoichiometry N in assay [5] of 2.

Values taken from PMC7472637.
